Reference: the supplement of paper PMC12042874
± gives the uncertainty stated by the source.

Assay: amyloid nucleation score (Sup35N fusion, yeast selection) (log enrichment); library NNK3; higher = more nucleation; inactive = no reads after selection
How it was run: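 On medium lacking adenine and uracil, psi-negative yeast expressing peptides of 20 random codons fused to Sup35N were grown 7 days at 30°C after a 24-hour induction with 100 μM copper sulfate. Illumina sequencing of input and output plasmid inserts gave the reads, and sequences under 100 input reads were excluded. The nucleation score is the DiMSum log enrichment of output over input reads, centred on the mode score of non-aggregating sequences.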

Row | Substance | amyloid nucleation score
1 | VILVFIFRYLHTPSGSSGAR | inactive
2 | VIMYHMKFDNEIWVMHLLRN | inactive
3 | VIRNYTIEIMWVWDQKADVQ | inactive
4 | VITGLIMMLNCIGFVFRGLA | inactive
5 | VITIAIELLGVLFVCIGTIV | inactive
6 | VIVKKLY | inactive
7 | VKDGTLCWCRAPFRCCRMPI | -0.426 ± 1.1
8 | VKNIGS | inactive
9 | VKNVIRGIKAQKVGGDESLC | inactive
10 | VKPLSRY | inactive
11 | VKPSLF | -0.567 ± 1
12 | VKTESEVLLSRMSTYSWENA | 1.23 ± 0.17
13 | VKVES | -0.195 ± 1.1
14 | VKVVNTSCPMDGLPNCLTRR | inactive
15 | VLAKLVFKPYKKGVISQ | inactive
16 | VLCDDTCYFADVSSWSWDWF | inactive
17 | VLCFI | inactive
18 | VLCHKSKWNMH | 0.322 ± 0.26
19 | VLCLVAGDYMNELIGGKGKV | inactive
20 | VLDRVKNRVFYLLVECQKLF | inactive
21 | VLGNFSSFVAAKVARRS | inactive
22 | VLIDYYMMSTSN | inactive
23 | VLILFVCPNFVLGSGVLIGW | inactive

Row | Substance | amyloid nucleation score
24 | VLKESMLGISLLMGTLRW | 0.2 ± 0.56
25 | VLLLTMEFGASDVFCWVVKY | inactive
26 | VLLMRNAVIYPGSGMSSSSA | inactive
27 | VLLPPGVE | -0.23 ± 0.98
28 | VLMMPPAFRRQSFNFRCVSQ | inactive
29 | VLPRRTLACIKRTNKASETV | inactive
30 | VLSEESNYAKM | inactive
31 | VLTVEMLHAWNCG | inactive
32 | VLVIGMWKTFYNYMQILCQA | inactive
33 | VLVLS | inactive
34 | VLVMISSWNYLMCIFFCINV | inactive
35 | VLYCGHCFVFTRCSGWVQLG | inactive
36 | VLYVTKGVIFRCGCYNVGED | 1.7 ± 0.11
37 | VMCLPLPKFI | inactive
38 | VMCLRTFGASSFFI | -0.023 ± 0.55
39 | VMCVGYGTSRYSWVAFGLDK | inactive
40 | VMFFDIKIMARFWTPNEL | inactive
41 | VMHNVM | inactive
42 | VMLCFTFSMLVLVGGQVCLY | inactive
43 | VMLHSRFGRFRDNVTL | inactive
44 | VMLNLQI | 1.18 ± 0.17
45 | VMLRTFSA | inactive
46 | VMRFYQPSTASLYGSLASPR | inactive

Row | Substance | amyloid nucleation score
47 | VNALKRTGK | inactive
48 | VNATDRSVSFLHKGPALDSN | inactive
49 | VNEFNGDGGSQLRQKQNPLF | inactive
50 | VNISVRQALHANYVGTCFVC | 1.85 ± 0.084
51 | VNKFNFNIVIFSNWNMYQ | 3.36 ± 0.062
52 | VNKVDGLETMQYIFTCGSWM | 0.098 ± 0.23
53 | VNLDTSSGKT | inactive
54 | VNLPFNDKYHLVFIGMA | inactive
55 | VNPISWGHVIVTYQN | inactive
56 | VNSLATRNFIGTLCVVSHKR | inactive
57 | VNSLVSRQINFIEVRRSMRW | 0.849 ± 0.23
58 | VNVEFLASVFPWNISKKCEQ | inactive
59 | VNWSSFIFESTSIFS | 0.476 ± 0.28
60 | VNYRN | inactive
61 | VNYYRCWLVSIRYYSLHDHL | 2.35 ± 0.055
62 | VPCMRNFDLYLKSVTDRLDK | inactive
63 | VPGCA | -0.075 ± 1.1
64 | VPGDEHRDGKLGAKWWTCRR | inactive
65 | VPGYAAMSPLLCYRGIPVQG | inactive
66 | VPKAYR | inactive
67 | VPLIMSRGRRCRMLFKLPST | inactive
68 | VPLPEGFHNRTSNCIFFINE | 0.932 ± 0.12
69 | VPSPTFIHVARRSRYHYASR | inactive

Row | Substance | amyloid nucleation score
70 | VQAYLCEYR | inactive
71 | VQGTILRSRQNCTL | 0.308 ± 0.48
72 | VQLSMPGFGDWCRIRWVTAG | inactive
73 | VRAMCLPHV | inactive
74 | VRDCTSQLINDGNNLVPGMW | inactive
75 | VRILLRFLVVFRLYLVFC | inactive
76 | VRLVGLCFYIAMSLPSSFFI | inactive
77 | VRMMFSWPK | 0.902 ± 0.24
78 | VRPLRSVLFDVASNVIGSVG | inactive
79 | VRSPPVPLNCVE | inactive
80 | VRSRLGSGRDEKPRALSSCM | inactive
81 | VRTFEAVLCVPIRLDWVRDR | inactive
82 | VRTNPGGFWLNLCQQTQKES | inactive
83 | VRTYNQCKSHVLDWLRNTYF | -0.295 ± 0.96
84 | VRVSPLCIGRPALGQAIAVF | inactive
85 | VRWSWSMFVVYNSVES | inactive
86 | VSCYSRYRVVVHRGSVVISR | inactive
87 | VSCYVTHISYRSSFGSMFYS | inactive
88 | VSDCESMAN | inactive
89 | VSFLFDIW | 2.24 ± 0.06
90 | VSFLMIYLSSNCSVSVRYHY | inactive
91 | VSGMNSKLFYW | inactive
92 | VSGWFDWDFLDDNGQYWLHV | inactive

Row | Substance | amyloid nucleation score
93 | VSIDSSFLHRSLLS | inactive
94 | VSIIVRYQL | 1.93 ± 0.096
95 | VSITVFPFTLLITYLI | 0.165 ± 0.75
96 | VSKVKSNPPYITDEIVFCRR | inactive
97 | VSLCIDRSMRCPRLVCVERG | inactive
98 | VSLKEITKLYRSIWVFLWSS | inactive
99 | VSLTFVVCRALFLSFTW | inactive
100 | VSMSMRYQDASGVTSCFTSL | inactive
101 | VSNDLNFILYAPTNVVMSTY | 1.25 ± 0.14
102 | VSNNVQVNQVMYFNTVICIV | 2.69 ± 0.063
103 | VSNVSGSIHWGNFCAMNIAV | inactive
104 | VSNYDLESS | inactive
105 | VSSMGSV | inactive
106 | VSTRGITDMMLGDMAVVNVG | inactive
107 | VSTSPNIDSLRCFCIHVKRR | inactive
108 | VSVCLVCAVIPRLLSMRCIV | inactive
109 | VSVLMGAWDLMWMPGKS | 1.08 ± 0.14
110 | VSYVGLDSDICSFNWLSLLA | inactive
111 | VTAELNFITVNGYVE | inactive
112 | VTCNVSSYGTMKEKVAYEGS | -0.003 ± 0.88
113 | VTFAARLTYKSILDILCMME | inactive
114 | VTFYFSYMCAKGTH | 0.53 ± 0.17
115 | VTGLEVRHQRHIWHNMGMIR | inactive

Row | Substance | amyloid nucleation score
116 | VTKAWMCYYLLLYVWDEGRA | inactive
117 | VTLTLEGLDRWVNQSEIAPS | 0.071 ± 0.29
118 | VTMFDLVSM | inactive
119 | VTMMLVMLFSQMFSFLAFVN | inactive
120 | VTQYMYTT | inactive
121 | VTRCCPMWD | -0.702 ± 2.5
122 | VTRFTYPRILLGRNVDWLSF | inactive
123 | VTVSSWASYIIVNGKWRIKC | inactive
124 | VTWIYSSNGVWINGDKSFML | 1.22 ± 0.079
125 | VVDYNKDQDGAMTASRGDRK | -0.726 ± 1.5
126 | VVERKGRSKKLVFVCLLILW | inactive
127 | VVGKFSTADILSFR | inactive
128 | VVHKNRLMKFHRFLILYSEG | inactive
129 | VVINHYMNHIAEHTDSLRGG | 1.57 ± 0.075
130 | VVKNTW | inactive
131 | VVKYSSRCSKVRICLSRWVW | inactive
132 | VVQSGRAFRCYRCSLEVQTE | inactive
133 | VVSAGIAFPWTGLS | inactive
134 | VVSLMDTPFD | inactive
135 | VVSTNVYGGLTMASYCGALP | 1.24 ± 0.16
136 | VVTSRCLRKKLFLDLSVCIT | inactive
137 | VVVIHE | inactive
138 | VVYIRWYIRLLRHNIVSILS | inactive

Row | Substance | amyloid nucleation score
139 | VWFNPLCYRNYGMETLVSTK | inactive
140 | VWIIEK | 1.99 ± 0.062
141 | VWLCSLLQITFIYAEVTVSL | inactive
142 | VWMVCSPSGIRLANSFVVDI | inactive
143 | VWYDRSEGLARAHNLYSGSE | inactive
144 | VWYVSLTMIWLGSMALGFAR | inactive
145 | VYDLVT | inactive
146 | VYFMCVQHWLVSGHPDPLNE | -0.246 ± 0.69
147 | VYGIQRVMGRLWIMNVWVPF | inactive
148 | VYGLVRLALSAINDYEDYNL | inactive
149 | VYGSQGYRGRCFHLCYYYRS | inactive
150 | VYGWMVVHVGRLWTWLHRLL | inactive
151 | VYHFSGWCRHSCSSLQKSHD | inactive
152 | VYHTYVVLMGGHLPTSLGVT | 1.8 ± 0.078
153 | VYISESVQRMYSLCTFSSLD | 1.18 ± 0.085
154 | VYISFGFLILFLFSEFLPCV | inactive
155 | VYRFGMVLRNVHLFRLLIGG | inactive
156 | VYRGLQWECLDGIVAFRRER | inactive
157 | VYRIARMAQHLIRWKNR | 0.187 ± 0.7
158 | VYRQVLRET | inactive
159 | VYSLE | inactive
160 | VYSLMGS | inactive
